Data reported in US20250027901A1.
“And” between values parts separate entries of the source, which are not always exact repeats. Equal entries are not always repeated. Where two headings read alike, the source gives them in different places.

Legend:
lysozyme [1] = assay: OECT sensor, SpyDirect SARS-CoV-1 nanobody gates after 7-day storage, lysozyme
[2] = target: Cysteine terminated spyTag peptide (…); assay: QCMD, nanobody-SpyCatcher coupling to Cys-SpyTag peptide on gold (SpyDirect)
[3] = target: snoopTag-msfGFP-3C cleavage site-TwinStrep
[4] = target: SARS-CoV-2 S1 (Sino Biological 40591-V08B1) (SARS-CoV-2) (UniProt P0DTC2)
[5] = target: SARS-CoV-2 S1 (Sino Biological 40591-V08B1) (SARS-CoV-2) (UniProt P0DTC2); assay: OECT sensor, SpyDirect SARS-CoV-1 nanobody gate, 1.2 aM spike (FIG. 4C, saliva)
[6] = target: SARS-CoV-2 S1 (Sino Biological 40591-V08B1) (SARS-CoV-2) (UniProt P0DTC2); remark: listed apart in the source
lysozyme [7] = target: lysozyme
[8] = target: SARS-CoV-2 Spike-pseudotyped lentivirus (GeneCopoeia CAT. SP101-100) (SARS-CoV-2) (UniProt P0DTC2)

Sequence of lysozyme (P00698 19-147): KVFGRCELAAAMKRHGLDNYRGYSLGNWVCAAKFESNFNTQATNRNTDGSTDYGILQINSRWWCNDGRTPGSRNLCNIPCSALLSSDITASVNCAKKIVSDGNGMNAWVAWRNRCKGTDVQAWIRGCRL

Work on “VHH72-8 aa-spyCatcher-3C cleavage site-His8” yielded a normalized response (NR) (lysozyme [1]) of less than 12%, a Density per cm^2 [2] of 7.8e+12 per cm^2 and a gained mass (ng/cm^2) [2] of 376 ng/cm^2. For the same substance, the gained mass (ng/cm^2) [3] was less than 1 ng/cm^2, the Density per cm^2 [4] was 5.2e+12 per cm^2 and 2.3e+12 per cm^2 and the gained mass (ng/cm^2) [4] was 290 ng/cm^2 and 659 ng/cm^2. For the same substance, the normalized response (NR) [5] was 20%, the normalized response (NR) [6] was 20% and the normalized response (NR) (lysozyme [7]) was less than 15%. It also gave a normalized response (NR) [8] of 28%.
